# Source: paper PMC3753260, “High Yield Production of a Soluble Human Interleukin-3 Variant from E. coli with Wild-Type Bioactivity and Improved Radiolabeling Properties” (PLoS ONE, 2013)
# B1: ^125I-hIL-3(13-125; W13Y) (ligand, human)
# chain: GAMGSYVNCSNMIDEIITHLKQPPLPLLDFNNLNGEDQDILMENNLRRPNLEAFNRAVKSLQNASAIESILKNLLPCLPLATAAPTRHPIHIKDGDWNEFRRKLTFYLKTLENAQAQQ
# modifications: ^125I radio-iodinated (tyrosine labelling, Pierce Pre-Coated Iodination tubes / Iodogen)
# notes: non-native N-terminal overhang left after TEV protease cleavage of the NusA-His6 tag (cloning artifact); human interleukin-3, four-helix bundle core, residues 13-125 with W13Y; numbers count on: the mature protein; Vector pETNusH HTb; also called hIL-3(W13Y); hIL-3 analog; source: E. coli BL21 CodonPlus (DE3)-RIPL, purified (Ni-NTA, TEV cleavage, SEC, in some cases RP-HPLC), then radio-iodinated; …
# Tests used:
# [1] = target: T1, hIL-3Rα and hβc subunits co-expressed (hIL-3 receptor) (human, UniProt P26951 19-378; P32927 17-897); experiment: radioligand binding; ^125I-labelled hIL-3(13-125; W13Y) on COS cells transiently expressing IL-3 receptors; Scatchard analysis with EBDA-LIGAND software; details: one partner purified
# T1 construct: human interleukin-3 receptor α subunit, transiently co-expressed with βc on COS cells; human common β-subunit (βc) shared with the IL-5 and GM-CSF receptors, transiently co-expressed with IL-3Rα on COS cells; The two subunits were co-expressed on the same cells; also called IL-3Rα and βc; hIL-3 receptors; source: COS cells, transfected by electroporation (pSG5: IL-3Rα and pSG5: βc), on cells
# T1 sequence (P26951 19-378, chain 1 of 2): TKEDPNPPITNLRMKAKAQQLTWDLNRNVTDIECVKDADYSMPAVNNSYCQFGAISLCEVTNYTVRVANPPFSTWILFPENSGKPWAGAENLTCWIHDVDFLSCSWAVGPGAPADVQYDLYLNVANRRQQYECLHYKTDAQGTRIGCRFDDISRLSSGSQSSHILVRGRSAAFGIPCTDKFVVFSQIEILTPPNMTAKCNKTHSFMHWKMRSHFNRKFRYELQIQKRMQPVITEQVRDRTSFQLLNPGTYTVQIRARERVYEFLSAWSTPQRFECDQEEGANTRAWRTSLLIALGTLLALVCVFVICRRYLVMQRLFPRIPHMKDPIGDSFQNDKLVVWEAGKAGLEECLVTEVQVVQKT
# T1 sequence (P32927 17-897, chain 2 of 2): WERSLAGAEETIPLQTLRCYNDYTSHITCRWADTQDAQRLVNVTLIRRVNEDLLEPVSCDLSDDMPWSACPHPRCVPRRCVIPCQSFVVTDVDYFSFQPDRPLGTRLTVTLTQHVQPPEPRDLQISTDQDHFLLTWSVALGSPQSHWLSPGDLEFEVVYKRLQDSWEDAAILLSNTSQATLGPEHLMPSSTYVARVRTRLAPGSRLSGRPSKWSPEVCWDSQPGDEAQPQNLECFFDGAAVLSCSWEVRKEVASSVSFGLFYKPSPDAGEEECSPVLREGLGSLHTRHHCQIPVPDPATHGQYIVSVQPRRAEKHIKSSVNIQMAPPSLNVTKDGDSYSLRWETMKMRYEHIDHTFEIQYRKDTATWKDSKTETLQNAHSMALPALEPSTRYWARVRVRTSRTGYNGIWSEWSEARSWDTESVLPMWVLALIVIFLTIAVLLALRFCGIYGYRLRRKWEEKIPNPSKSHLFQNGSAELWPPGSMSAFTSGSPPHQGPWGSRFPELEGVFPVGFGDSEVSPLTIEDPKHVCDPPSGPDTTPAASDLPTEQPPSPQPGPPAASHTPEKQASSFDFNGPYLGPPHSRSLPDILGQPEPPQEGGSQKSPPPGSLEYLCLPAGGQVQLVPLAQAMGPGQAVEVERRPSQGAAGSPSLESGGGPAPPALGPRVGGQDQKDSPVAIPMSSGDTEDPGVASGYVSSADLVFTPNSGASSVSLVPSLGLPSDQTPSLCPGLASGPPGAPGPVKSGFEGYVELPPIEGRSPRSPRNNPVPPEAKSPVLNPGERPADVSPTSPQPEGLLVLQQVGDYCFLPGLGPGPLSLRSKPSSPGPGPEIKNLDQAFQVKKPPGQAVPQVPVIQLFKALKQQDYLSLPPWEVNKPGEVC
# human IL-3Rα subunit = target: T2, human IL-3Rα subunit (human, UniProt P26951 19-378); experiment: as above; details: one partner purified
# T2 construct: human interleukin-3 receptor α subunit, transiently expressed on COS cells; also called hIL-3Rα; IL-3-specific α-subunit; source: COS cells, transfected by electroporation (pSG5: IL-3Rα), on cells
# T2 sequence (P26951 19-378): as the sequence (P26951 19-378, chain 1 of 2) above
binder,measurement,setting,value
B1,Kd,[1],0.456 nM
same,Kd,human IL-3Rα subunit,143 nM
